Source: patent US7186551B1, “3′-phosphoadenosine -5′-phosphosulfate synthetase 2 (PAPSS2) sequence variants” (Mayo Foundation for Medical Education and Research, priority 2001, dated 2007)
Several values for one entry are separate records, joined by “and”; a condition that tells them apart may be missing. Equal values may be shown once.

Key:
Assay type in all cases: biochemical, human
[1] = system: PAPSS2; assay: PAPSS2 enzyme activity, coupled radiochemical assay (PAPS generation then SULT1E1-catalyzed sulfation of [3H]estradiol) with COS-1 expressed recombinant allozymes; details: for % WT activity / decrease in enzyme activity compared with the wild type enzyme: His-tagged recombinant allozyme, loxP-modified p91023(b) vector, COS-1 cells, corrected for transfection efficiency; for activity relative to the reference PAPSS2 (in words): general statement in the description
Text: Variant alleles of the four non-synonymous PAPSS2 cSNPs observed during the resequencing experiments were created using the QuickChange Site-Directed Mutagenesis Kit (Stratagene, La Jolla, Calif.), with wild type PAPSS2 cDNA in pUni as template. The sequence of the pUni insert was confirmed by completely sequencing both strands before recombination with the loxP-modified p91023(b) acceptor vector. pUni donor vectors that contained wild type and variant PAPSS2 cDNAs, as well as empty pUni, then were combined with the loxP-modified p91023(b) acceptor vector to generate the final expression constructs. In all cases, the fusion junctions of resultant expression constructs were sequenced to confirm that the construct was a dimer consisting of only a single donor and a single acceptor vector. These expression constructs were used to transfect COS-1 cells using TransFast™ reagent (Promega) with a 1:1 charge ratio. pSV-β-galactosidase (Promega) was co-transfected with each construct as an internal control to correct for transfection efficiency. Transfected COS-1 cells were harvested after 48 hours and were homogenized with a Polytron homogenizer (Brinkmann Instruments, Westbury, N.Y.) in 25 mM potassium phosphate buffer, pH 7.8, containing 1 mM dithiothreitol (DTT) and 1 mM EDTA. The homogenates were centrifuged at 15,000 g for 15 minutes, and the resultant supernatant preparations were used to perform enzyme assays, substrate kinetic studies and Western blot analyses. In some cases, aliquots of these cytosol preparations were stored at −80° C. prior to assay.
PAPSS2 Enzyme Activity: PAPSS2 activity was measured with a coupled radiochemical assay. See Xu et al., 2001, supra. Briefly, PAPS is generated from ATP and Na2SO4 in a PAPSS2-catalyzed reaction. The generated PAPS is then used as a substrate for the SULT1E1-catalyzed sulfate conjugation of [2,4,6,7-^3H]estradiol, a radioactively labeled sulfate acceptor substrate. The cell homogenate preparations of recombinant PAPSS2 allozymes described above were used for the activity studies without any further purification. The protein concentration of each recombinant protein preparation was determined by the dye-binding method of Bradford with bovine serum albumin (BSA) as a standard.
PAPS synthesis was catalyzed by recombinant wild-type PAPSS2 or PAPSS2 allozymes (present in the cell homogenate preparations described above) in the presence of 1 mM ATP, 16 mM Na2SO4, 1 mM MgCl2, and 2 mM DTT in 60 mM glycine-NaOH buffer, pH 8.6. Blank samples included the same quantity of COS-1 cytosol protein from cells that had been transfected with empty expression vector to make it possible to correct for endogenous activity. Reaction mixtures were incubated at 37° C. for 20 minutes, and then terminated by heating at 100° C. for 1 minute. An aliquot from this PAPS-generating reaction was then added to a second, coupled reaction containing recombinant human SULT1E1 isolated from COS-1 cells transfected with a SULT1E1 expression construct (see Aksoy et al., Biochem. Biophys. Res. Commun., 200:1621–1629 (1994)). The coupled reaction also included 27 nM [2,4,6,7-^3H]estradiol, 8 mM DTT and 1.25 mM MgCl2 in 10 mM potassium phosphate buffer, pH 6.5. The second, SULT1E1-catalyzed reactions were incubated at 37° C. for 20 minutes, and then terminated by the addition of KOH, followed by organic solvent extraction performed with chloroform. Radioactivity of the sulfate conjugated [2,4,6,7-^3H]estradiol in the aqueous phase after organic solvent extraction was then measured in a liquid scintillation counter. PAPSS activities of recombinant PAPSS2 allozymes were compared after correction for transfection efficiency by measuring the activity of cotransfected P-galactosidase. β-Galactosidase activity in the COS-1 cell preparations was measured with the β-Galactosidase Assay System (Promega) as described by the manufacturer. […]

[2] = system: PAPSS2; assay: Substrate kinetic studies of recombinant PAPSS2 with ATP and Na2SO4
Procedure: To estimate apparent Km values of PAPSS2 for the two reaction cosubstrates, a series of ATP (0.125–4 mM) and Na2SO4 (0.125–16 mM) concentrations were tested with the recombinant allozymes. When ATP was the varied substrate, the concentration of Na2SO4 was 4 mM, and when Na2SO4 was the varied substrate, the concentration of ATP was 1 mM. Blanks for each substrate concentration were included by assaying COS-1 cell cytosol after transfection with empty vector.
Data Analysis: Apparent Km values were calculated by using the method of Wilkinson with a computer program written by Cleland. Wilkinson, Biochem. J., 80:324–332 (1961); and Cleland, Nature, 198:[…] (1963). Statistical comparisons of data were performed by ANOVA with the StatView program, version 4.5 (Abacus Concepts, Inc., Berkeley, Calif.). Apparent Km, S50 and Vmax values for the wild-type and variant PAPSS2 allozymes were compared by the use of unpaired Student's t-test.
Alterations in amino acid sequence can alter enzyme substrate affinity and/or catalytic efficiency. Decreased activity of the Val291Met allozyme—without a significant alteration in level of enzyme protein—could have resulted from a change in substrate kinetics. Therefore, a series of ATP (0.125–4 mM) and Na2SO4 (0.125–16 mM) concentrations were used to estimate apparent Km values for recombinant wild type PAPSS2 and for the Val291Met variant allozyme. […] ATP concentrations at which 50% maximal velocity was achieved (S50 values) were 0.70 and 0.95 mM for the wild type and variant allozymes, respectively (Table 4). In both cases, the Hill coefficient was greater than 2, […]. In contrast, substrate kinetics of both allozymes for Na2SO4 conformed to Michaelis-Menten predictions (FIG. 5B). […] In summary, decreased activity for the Val1291Met variant appeared to result from an alteration in substrate kinetics, while decreased activity for the Glu10Lys allozyme, in contrast, resulted primarily from a decrease in the quantity of enzyme protein. Because the Val291Met variant was encoded by a construct that contained the most common PAPSS2 nonsynonymous cSNP, these observations could have functional implications for the sulfate conjugation of both endogenous and/or exogenous compounds.

[3] = system: PAPSS2; assay: PAPSS2 enzyme activity, coupled radiochemical assay (PAPS generation then SULT1E1-catalyzed sulfation of [3H]estradiol) with COS-1 expressed recombinant allozymes; details: non-His-tagged expression vector p91023(b), COS-1 cells, corrected for transfection efficiency

| Molecule | % WT activity [1] | decrease in enzyme activity compared with the wild type enzyme [1] [%] | activity relative to the reference PAPSS2 (in words) [1] | S50 for ATP (ATP concentration at which 50% maximal velocity was achieved) ([2]; ATP varied 0.125-4 mM, Na2SO4 4 mM) | Km ([2]; apparent Km, Na2SO4 varied 0.125-16 mM, ATP 1 mM) [µM] | Vmax/S50, ATP ([2]; ratio, wild type = 100, ATP as varied substrate) | Vmax, ATP ([2]; relative Vmax, wild type = 100, ATP as varied substrate) | Vmax, Na2SO4 ([2]; relative Vmax, wild type = 100, Na2SO4 as varied substrate) | activity reduced compared with wild type [3] [%] |
| --- | --- | --- | --- | --- | --- | --- | --- | --- | --- |
| Val291Met: PAPSS2 polypeptide allozyme having a methionine at amino acid 291 in place of valine (adenine at nucleotide 871) (protein) MSGIKKQKTENQQKSTNVVYQAHHVSRNKRGQVVGTRGGFRGCTVWLTGLSGAGKTTISFALEEYLVSHAIPCYSLDGDNVRHGLNRNLGFSPGDREENIRRIAEVAKLFADAGLVCITSFISPFAKDRENARKIHESAGLPFFEIFVDAPLNICESRDVKGLYKRARAGEIKGFTGIDSDYEKPETPERVLKTNLSTVSDCVHQVVELLQEQNIVPYTIIKDIHELFVPENKLDHVRAEAETLPSLSITKLDLQWVQVLSEGWATPLKGFMREKEYLQVMHFDTLLDDGMINMSIPIVLPVSAEDKTRLEGCSKFVLAHGGRRVAILRDAEFYEHRKEERCSRVWGTTCTKHPHIKMVMESGDWLVGGDLQVLEKIRWNDGLDQYRLTPLELKQKCKEMNADAVFAFQLRNPVHNGHALLMQDTCRRLLERGYKHPVLLLHPLGGWTKDDDVPLDWRMKQHAAVLEEGVLDPKSTIVAIFPSPMLYAGPTEVQWHCRSRMIAGANFYIVGRDPAGMPHPETKKDLYEPTHGGKVLSMAPGLTSVEIIPFRVAAYNKAKKAMDFYDPARHNEFDFISGTRMRKLAREGENPPDGFMAPKAWKVLTDYYRSLEKN | 37.1 ± 6.9% | 62.9 | reduced activity | 0.95 mM and 0.95 ± 0.02 mM | 3000 | 27.8 ± 3.3 | 37 ± 3.9 | 45 ± 2.4 | 57.4 |
| Glu10Lys: PAPSS2 polypeptide allozyme having a lysine at amino acid residue 10 in place of glutamic acid (adenine at nucleotide 28) (protein) MSGIKKQKTKNQQKSTNVVYQAHHVSRNKRGQVVGTRGGFRGCTVWLTGLSGAGKTTISFALEEYLVSHAIPCYSLDGDNVRHGLNRNLGFSPGDREENIRRIAEVAKLFADAGLVCITSFISPFAKDRENARKIHESAGLPFFEIFVDAPLNICESRDVKGLYKRARAGEIKGFTGIDSDYEKPETPERVLKTNLSTVSDCVHQVVELLQEQNIVPYTIIKDIHELFVPENKLDHVRAEAETLPSLSITKLDLQWVQVLSEGWATPLKGFMREKEYLQVMHFDTLLDDGVINMSIPIVLPVSAEDKTRLEGCSKFVLAHGGRRVAILRDAEFYEHRKEERCSRVWGTTCTKHPHIKMVMESGDWLVGGDLQVLEKIRWNDGLDQYRLTPLELKQKCKEMNADAVFAFQLRNPVHNGHALLMQDTCRRLLERGYKHPVLLLHPLGGWTKDDDVPLDWRMKQHAAVLEEGVLDPKSTIVAIFPSPMLYAGPTEVQWHCRSRMIAGANFYIVGRDPAGMPHPETKKDLYEPTHGGKVLSMAPGLTSVEIIPFRVAAYNKAKKAMDFYDPARHNEFDFISGTRMRKLAREGENPPDGFMAPKAWKVLTDYYRSLEKN | 72.6 ± 7.2% | 27.4 | reduced activity | – | – | – | – | – | 14.1 |
| Arg432Lys: PAPSS2 polypeptide allozyme having a lysine at amino acid 432 in place of arginine (adenine at nucleotide 1295) (protein) MSGIKKQKTENQQKSTNVVYQAHHVSRNKRGQVVGTRGGFRGCTVWLTGLSGAGKTTISFALEEYLVSHAIPCYSLDGDNVRHGLNRNLGFSPGDREENIRRIAEVAKLFADAGLVCITSFISPFAKDRENARKIHESAGLPFFEIFVDAPLNICESRDVKGLYKRARAGEIKGFTGIDSDYEKPETPERVLKTNLSTVSDCVHQVVELLQEQNIVPYTIIKDIHELFVPENKLDHVRAEAETLPSLSITKLDLQWVQVLSEGWATPLKGFMREKEYLQVMHFDTLLDDGVINMSIPIVLPVSAEDKTRLEGCSKFVLAHGGRRVAILRDAEFYEHRKEERCSRVWGTTCTKHPHIKMVMESGDWLVGGDLQVLEKIRWNDGLDQYRLTPLELKQKCKEMNADAVFAFQLRNPVHNGHALLMQDTCRRLLEKGYKHPVLLLHPLGGWTKDDDVPLDWRMKQHAAVLEEGVLDPKSTIVAIFPSPMLYAGPTEVQWHCRSRMIAGANFYIVGRDPAGMPHPETKKDLYEPTHGGKVLSMAPGLTSVEIIPFRVAAYNKAKKAMDFYDPARHNEFDFISGTRMRKLAREGENPPDGFMAPKAWKVLTDYYRSLEKN | 104.8% and 104.8 ± 10.1% | – | activity that is comparable to the reference PAPSS2 | – | – | – | – | – | – |
| Met281Leu: PAPSS2 polypeptide allozyme having a leucine at amino acid residue 281 in place of methionine (thymine at nucleotide 841) (protein) MSGIKKQKTENQQKSTNVVYQAHHVSRNKRGQVVGTRGGFRGCTVWLTGLSGAGKTTISFALEEYLVSHAIPCYSLDGDNVRHGLNRNLGFSPGDREENIRRIAEVAKLFADAGLVCITSFISPFAKDRENARKIHESAGLPFFEIFVDAPLNICESRDVKGLYKRARAGEIKGFTGIDSDYEKPETPERVLKTNLSTVSDCVHQVVELLQEQNIVPYTIIKDIHELFVPENKLDHVRAEAETLPSLSITKLDLQWVQVLSEGWATPLKGFMREKEYLQVLHFDTLLDDGVINMSIPIVLPVSAEDKTRLEGCSKFVLAHGGRRVAILRDAEFYEHRKEERCSRVWGTTCTKHPHIKMVMESGDWLVGGDLQVLEKIRWNDGLDQYRLTPLELKQKCKEMNADAVFAFQLRNPVHNGHALLMQDTCRRLLERGYKHPVLLLHPLGGWTKDDDVPLDWRMKQHAAVLEEGVLDPKSTIVAIFPSPMLYAGPTEVQWHCRSRMIAGANFYIVGRDPAGMPHPETKKDLYEPTHGGKVLSMAPGLTSVEIIPFRVAAYNKAKKAMDFYDPARHNEFDFISGTRMRKLAREGENPPDGFMAPKAWKVLTDYYRSLEKN | 107.7% and 107.7 ± 2.9% | – | activity that is comparable to the reference PAPSS2 | – | – | – | – | – | – |
